We go through six molecules from publication doi:10.1101/2023.03.30.534840.

For experiment [1], the target named is His-MeSufC (expressed alone in E. coli) (Monocercomonoides exilis). Kind of experiment: SEC.
In experiment [2] the target is MeSufBC complex (His-MeSufB with MeSufC-HA) (Monocercomonoides exilis). Kind of experiment: mass photometry.
For experiment [3] the target is unchanged. Kind of experiment: SEC. (SEC sorts molecules by how far they enter the pores of the column.)
The target is the same in experiment [4]. Description: SEC. The source holds these as a separate data set.
For experiment [5] the target is unchanged. Description: mass photometry. This is another data set of the same source.
Experiment [6] concerns the target His-MeSufB (Monocercomonoides exilis). Kind of experiment: mass photometry.
In experiment [7] the target is T25-MeSufB (Monocercomonoides exilis). Description: two-hybrid.
In experiment [8] the target is T25-MeSufC (Monocercomonoides exilis). Description: two-hybrid.

“And” between values parts separate entries of the source, which are not always exact repeats. Equal entries are not always repeated.

In the case of “His-MeSufC (expressed alone in E. coli) (enzyme)”, the stoichiometry N (as a rule, a count of units in the complex or per binding partner) in experiment [1] turned out to be 2.
Consider “MeSufBC complex (His-MeSufB with MeSufC-HA)”, for which the stoichiometry N (MeSufBC units) in experiment [2] was 2; in experiment [3], 4; in experiment [4], 2 and 4; in experiment [5], 2.
As to MeSufC-HA (enzyme), the stoichiometry N (MeSufC per MeSufB) in experiment [6] is 1.
For the molecule MeSufC-T18 (natural protein), the β-galactosidase activity (BACTH) in experiment [7] was 670 Miller units.

B1: EcSufC-T18 (natural protein)
chain: MLSIKDLHVSVEDKAILRGLSLDVHPGEVHAIMGPNGSGKSTLSATLAGREDYEVTGGTVEFKGKDLLALSPEDRAGEGIFMAFQYPVEIPGVSNQFFLQTALNAVRSYRGQETLDRFDFQDLMEEKIALLKMPEDLLTRSVNVGFSGGEKKRNDILQMAVLEPELCILDESDSGLDIDALKVVADGVNSLRDGKRSFIIVTHYQRILDYIKPDYVHVLYQGRIVKSGDFTLVKQLEEQGYGWLTEQQ
In turn, B1 returned a β-galactosidase activity (BACTH) in experiment [7] of 1040 Miller units.

B2: EcSufB-T18 (natural protein)
chain: MSRNTEATDDVKTWTGGPLNYKEGFFTQLATDELAKGINEEVVRAISAKRNEPEWMLEFRLNAYRAWLEMEEPHWLKAHYDKLNYQDYSYYSAPSCGNCDDTCASEPGAVQQTGANAFLSKEVEAAFEQLGVPVREGKEVAVDAIFDSVSVATTYREKLAEQGIIFCSFGEAIHDHPELVRKYLGTVVPGNDNFFAALNAAVASDGTFIYVPKGVRCPMELSTYFRINAEKTGQFERTILVADEDSYVSYIEGCSAPVRDSYQLHAAVVEVIIHKNAEVKYSTVQNWFPGDNNTGGILNFVTKRALCEGENSKMSWTQSETGSAITWKYPSCILRGDNSIGEFYSVALTSGHQQADTGTKMIHIGKNTKSTIISKGISAGHSQNSYRGLVKIMPTATNARNFTQCDSMLIGANCGAHTFPYVECRNNSAQLEHEATTSRIGEDQLFYCLQRGISEEDAISMIVNGFCKDVFSELPLEFAVEAQKLLAISLEHSVG
For B2, in experiment [8], the β-galactosidase activity (BACTH) stood at 556 Miller units.
